According to publication doi:10.1101/093708 (bioRxiv, 2016):

Biological target: the molecule itself
Assay: cryo-EM structure; EcFtsZ 0.5 mg/mL in 50 mM HEPES-KOH, 100 mM potassium acetate, 5 mM magnesium acetate, pH 7.7, 20 °C, 0.1 mM GMPCPP; helical reconstruction of filaments in RELION

B1: Escherichia coli FtsZ, full length, untagged, wildtype (natural protein, E. coli, UniProt P0A9A6 1-383, looked up)
chain: MFEPMELTNDAVIKVIGVGGGGGNAVEHMVRERIEGVEFFAVNTDAQALRKTAVGQTIQIGSGITKGLGAGANPEVGRNAADEDRDALRAALEGADMVFIAAGMGGGTGTGAAPVVAEVAKDLGILTVAVVTKPFNFEGKKRMAFAEQGITELSKHVDSLITIPNDKLLKVLGRGISLLDAFGAANDVLKGAVQGIAELITRPGLMNVDFADVRTVMSEMGYAMMGSGVASGEDRAEEAAEMAISSPLLEDIDLSGARGVLVNITAGFDLRLDEFETVGNTIRAFASDNATVVIGTSLDPDMNDELRVTVVATGIGMDKRPEITLVTNKQVQQPVMDRYQQHGMAPLTQEQKPVAKVVNDNAPQTAKEPDYLDIPAFLRKQAD
notes: also called EcFtsZ; E. coli FtsZ; source: E. coli C41 (DE3), purified (GTP and calcium-induced precipitation, Mono Q)
B1: binds.
